Target: Slx4-S486A^3Flag (budding yeast), Q12098
Assay: affinity purification with mass spectrometry
Conditions: remark: other sources report otherwise

Slx4-S486A^3Flag (budding yeast), Q12098, sequence (Q12098 whole entry S486A): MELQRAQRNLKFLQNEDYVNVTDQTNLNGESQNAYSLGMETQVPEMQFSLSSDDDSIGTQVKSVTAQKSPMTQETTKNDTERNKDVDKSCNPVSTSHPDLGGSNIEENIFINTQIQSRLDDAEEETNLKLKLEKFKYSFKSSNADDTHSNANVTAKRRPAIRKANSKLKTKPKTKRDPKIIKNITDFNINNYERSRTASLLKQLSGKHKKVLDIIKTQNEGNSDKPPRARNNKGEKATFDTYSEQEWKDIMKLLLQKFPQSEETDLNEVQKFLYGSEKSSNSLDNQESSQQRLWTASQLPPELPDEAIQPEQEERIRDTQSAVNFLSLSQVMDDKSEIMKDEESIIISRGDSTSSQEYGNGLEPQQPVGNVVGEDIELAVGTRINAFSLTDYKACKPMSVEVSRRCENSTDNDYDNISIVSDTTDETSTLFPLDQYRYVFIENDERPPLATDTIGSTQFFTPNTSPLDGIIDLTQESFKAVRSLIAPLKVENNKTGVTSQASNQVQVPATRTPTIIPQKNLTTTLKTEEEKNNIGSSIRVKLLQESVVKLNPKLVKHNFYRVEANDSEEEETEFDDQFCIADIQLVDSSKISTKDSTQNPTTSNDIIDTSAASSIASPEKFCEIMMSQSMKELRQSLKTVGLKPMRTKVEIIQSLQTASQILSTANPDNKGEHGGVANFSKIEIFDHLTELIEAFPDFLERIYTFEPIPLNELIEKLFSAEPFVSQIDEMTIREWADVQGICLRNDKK

fold reduction of binding against wild-type Slx4^3Flag: 8 fold
B1: Dpb11, endogenous, P47027 1-764 (natural protein)
chain: MKPFQGITFCPTAINNEILAKKISKKIIKLGGIFSKDLTRQVNVLVVGSTTNTNKFKFAVKHRFDIIFIDIQAIDDIYQLWLSGENILPDSNTATMTGSTYEMLKILYRRFSFKYLHNFNIFIGRITDTNITSIDSLVRSIKKLGCSSYNYQNFVIKDTSSHNDDDDQGQNGQISIFVTDTLLGARVNAAIEQNIPIVHFKWILDCQKRSALLPYDPYYLLPNIKDLPYDSIGSNSCDCWDKINTTFPTNIDAQSSLQRQQSSSTLTPSLPKTSSLLNKFKPKGEKIWDKAMSLQQHSKTNFSVLGQSPLSINNKQEDLSDNSTLIFKNCAFIIHHIFPGNHRSILTKIVVQNGGKIETSYLSGIYDHSYYIIPSNKALDSFNDLPEIIDDNDGIVTEFFIERCLYYQKLLHPIDLWSKPFLSTIEFQVSSSSKLLHHEFSSSPFLNVTITGFSGVELLHLTKVLNLLKPMGINYVEYLNKSTDILLINLAALPSIPKTHPLWSNEFSDLFTQFCINNNNDDPGDNNRKDFQNNSILRNSMKRKIEYIKKFHSIPVVTPAFIFKLLSAASGENNEIFLNNIKWCIICPRGHKDDFKCKIKKPYYTSISSEKKYQNNDPKIDKTILLKRNNSSLSEHSMKDTKNELLQKIRETDSGRKKRSVSSSIMDVSSERQMPDTKRIKLESLPKNFVPKQIKRTTSWGTIMSENVPTEQPTAISNPEEIPRTEEVSHTQVTYGSIQDKKRTASLEKPMRRQTRNQTKELDS
